Test [1] addresses E. coli ρ G150D with the sensor cysteines C84/C405 (X1), untagged (E. coli MG1655) (UniProt P0AG30). Briefly: cross-linking; BMOE (0.5 mM) crosslinking of 1 μM purified ρ in PN23 buffer without nucleotide; LDS-PAGE.
For test [2] the target is unchanged. Description: cross-linking; BMOE (0.5 mM) crosslinking of 1 μM purified untagged ρ in PN23 buffer with ppGpp or pppGpp; LDS-PAGE.
The target is the same in test [3]. Briefly: cross-linking; BMOE (0.5 mM) crosslinking of 1 μM purified ρ in PN23 buffer with 2 mM ADP, 10 min at room temperature; LDS-PAGE.

From article PMC11829017 come the findings set out here.

“E. coli ρ G150D with the sensor cysteines C84/C405 (X1), untagged (from UniProt P0AG30 1-419) (enzyme)”: the percent of ρ in the filament fraction in test [1] amounted to 18%; in test [3] it was 56%. The stoichiometry N in test [2] stood at 12.
